Test system: K4 kissing-loop RNA reporter
Assay: apparent KD of K4 kissing-loop reporter; higher = weaker reporter binding
Settings: Eterna round: R107
Method: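 RNA-MaP round R107: designed RNA switches with theophylline, tryptophan, arginine or FMN aptamers are transcribed on-chip within common flanks. They are titrated with a labelled K4 kissing-loop RNA reporter in RNA-MaP buffer (100 mM Tris pH 7.5, 80 mM KCl, 4 mM MgCl2), without ligand or with the indicated ligand. Median apparent KD per design.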

[1] = input ligand: theophylline 20 uM
[2] = input ligand: tryptophan 2.4 mM
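Also: bound reporter read as fluorescence of individual clusters on recovered sequencing chips by microscopy, with normalized cluster intensities fitted with a binding model.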

Sequence	apparent KD of K4 kissing-loop reporter (input ligand: FMN 200 uM) [nM]	apparent KD of K4 kissing-loop reporter (input ligand: arginine 13.2 mM) [nM]	apparent KD of K4 kissing-loop reporter (input ligand: none) [nM]	apparent KD of K4 kissing-loop reporter [1] [nM]	apparent KD of K4 kissing-loop reporter [2] [nM]
AGGAGCGUGGGAUGGAAAUCGCACGCUCCUCGAGGACCGGUACGGCCGCCACUCGCUCGCGCCGAGUGAUGUUCGGCCGGCGAAG [#2 Same State - Tryptophan A Attempt #15 (HarryS)]	579	194	128	129	226
AGGAUGUAGUGAUGUUAUAUAAGAAGUAGACGAGGACCGGUACGGCCGCCACUCGAAACGGCUACUAGCGCGUUGCGAGGUGUGC [ExTryptoA.Cg]	576	435	476	468	326
AGGCACGAGCAAGGAUAUCGAGUAGAGUGAUGUUCUGCCUGGGUUGGCUCGCAAGAGCCUUCUCAGCGAGAAGGUGCUCGUGCCU [#2 Same State - FMN A Attempt #18 (HarryS)]	176	602	946	595	640
AGGCGCUUAAGUCAGUGAUGUUGAUUAUAUCGAGGACCGGUACGGCCGCCACUCGGCUUUCAUCCGCCAUCGUAGUCCUAAAACC [theeternabot_sameState_KL_Trp_A_25]	498	490	559	534	549
AGGCGGCAAGAUUGAUUGGAAAGUAAUCGACGAGGACCGGUACGGCCGCCACUCGAACACCAGUGAUGUUGGUCUGGCUUAAGCC [Exclusion Tryptophan A GF 20]	430	369	435	477	363
AGGCGGCAUGAUUGACUGAAAAGAAAUCAACGAGGACCGGUACGGCCGCCACUCGAACACCAGUGAUGUUGGUAUGGGAUAACCC [Exclusion Tryptophan A GF 19]	178	188	184	173	159
AGGGUUUAACACGAUACCAGCCUGGAGGCCAGUGAUGUUGGCCGAUUUGAACAGAAUUAAGGCCCUUGGCAGCGUCUUUAAAACC [Biarat]	143	152	167	165	153
AGGGUUUAGGACGAUACCAGCCUGGAGGCCAGUGAUGUUGGCCGAUUUGAACAGAAUUAAGGCCCUUGGCAGCGUAUCUAAAACC [Esamaza]	280	291	320	161	259
AGGUAGUCCCUUGUUGUCAUCGAAGAUGAACGAGGACCGGUACGGCCGCCACUCGGAGUGAUGUUCCGAUGGCUGCAAAAUAAAA [MatMod 23 - Jieux - Exclusion - Tryptophan A]	108	89	97.2	85.9	103
AGGUCACAACUACAGUGAUGUUGUGGAGAGCAGGAUAUGCAGAAAUGCAGAAGGGCUCGCUCUCUAGUGACCGAUCAAAAGAUCA [Omei KL FMN A SS A v9]	1360	311	669	545	532
AGGUCACGAGGAAGGAGCGCCCUGACAGGUUGCUGCCGUGGGCAGUGAUGUUGCUCAGUCCGGCAGGUAGGUCGCCUCGUGACCU	151	174	147	111	148
AGGUCAGCAGGAAGGAGCGCCCUGACAGGUUGCUGCCGUGGGCAGUGAUGUUGCUCAGUCCGGCAGGUAGGUCGCCUGCUGACCU	204	157	153	188	156
AGGUCCGAGCCCGCAAGGGCUCGGACCUGUUAGGAUAUGACGUUAUUCAGAAGGGAUGGGUGGAGUGAUGUUCCACCCGCGAGGG [#2 Same State - FMN A Attempt #12 (HarryS)]	132	131	202	–	149
AGGUCCGAGCCCGGAAGGGCUCGGACCUGUUAGGAUAUGACGUUAUUCAGAAGGGAUGGGUGGAGUGAUGUUCCACCCGAGAGGG [#2 Same State - FMN A Attempt #17 (HarryS)]	106	103	100	108	98.3
AGGUCCGAGCCUGCAAAGGCUCGGACCUGUUAGGAUAUGACGUUAUUCAGAAGGGAUGGGUGGAGUGAUGUUCCACCCGCAAGGG [#2 Same State - FMN A Attempt #7 (HarryS)]	142	105	120	98.4	113
AGGUCCGAGCCUGUAAAGGCUCGGACCUGUUAGGAUAUGACGUUAUUCAGAAGGGAUGGGUGGAGUGAUGUUCCACCCGCAAGGG [#2 Same State - FMN A Attempt #5 (HarryS)]	107	103	111	116	104

From the supplement of paper PMC9170038
